One block for each binder: values may come before it.
How the values were obtained:
[1] = molecular target: T1, NKp30 coated on the ELISA plate (Example 14) (UniProt O14931 19-135); assay: ELISA
T1 chain: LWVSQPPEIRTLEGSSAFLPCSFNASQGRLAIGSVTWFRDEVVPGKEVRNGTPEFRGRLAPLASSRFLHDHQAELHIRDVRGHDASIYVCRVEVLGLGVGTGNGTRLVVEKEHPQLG

[2] = molecular target: T1, NKp30 coated on the ELISA plate …; assay: competition ELISA; blocking of B7-H6 binding to NKp30

Kd [1]: 6.56 nM
B1: B7-H6 (ligand)
chain: DLKVEMMAGGTQITPLNDNVTIFCNIFYSQPLNITSMGITWFWKSLTFDKEVKVFEFFGDHQEAFRPGAIVSPWRLKSGDASLRLPGIQLEEAGEYRCEVVVTPLKAQGTVQLEVVASPASRLLLDQVGMKENEDKYMCESSGFYPEAINITWEKQTQKFPHPIEISEDVITGPTIKNMDGTFNVTSCLKLNSSQEDPGTVYQCVVRHASLHTPLRSNFTLTAARHSLSETEKTDNFS

Kd [1]: 0.578 nM
IC50 [2]: 29.4 nM
B2: BJM1042 (bispecific anti-TRBC1/NKp30 antibody) (bispecific antibody)
heavy: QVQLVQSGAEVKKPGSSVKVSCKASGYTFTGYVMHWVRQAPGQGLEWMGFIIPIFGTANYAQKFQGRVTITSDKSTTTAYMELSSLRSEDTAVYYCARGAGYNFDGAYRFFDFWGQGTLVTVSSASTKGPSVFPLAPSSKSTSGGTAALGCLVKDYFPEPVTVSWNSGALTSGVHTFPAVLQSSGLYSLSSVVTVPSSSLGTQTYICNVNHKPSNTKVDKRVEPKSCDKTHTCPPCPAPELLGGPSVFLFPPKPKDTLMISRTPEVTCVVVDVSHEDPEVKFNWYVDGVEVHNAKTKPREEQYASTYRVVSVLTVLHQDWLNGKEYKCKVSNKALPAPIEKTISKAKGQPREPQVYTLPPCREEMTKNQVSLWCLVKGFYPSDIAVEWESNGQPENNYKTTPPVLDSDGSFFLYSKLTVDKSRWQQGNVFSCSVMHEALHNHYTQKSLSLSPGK
light: DVVMTQSPLSLPVTLGQPASISCRSSQRLVHSNGNTYLHWYQQRPGQSPRLLIYRVSNRFPGVPDRFSGSGSGTDFTLKISRVEAEDVGVYFCSQSTHVPYTFGGGTKVEIKRTVAAPSVFIFPPSDEQLKSGTASVVCLLNNFYPREAKVQWKVDNALQSGNSQESVTEQDSKDSTYSLSSTLTLSKADYEKHKVYACEVTHQGLSSPVTKSFNRGEC
chain: EIQLLESGGGLVQPGGSLRLSCAVSGFSITTTGYHWNWVRQAPGKGLEWVGYIYSSGSTSYNPSLKSRFTISRDTSKNTFYLQMNSLRAEDTAVYYCARGDWHYFDYWGQGTMVTVSSGGGGSGGGGSGGGGSGGGGSDSVTTQSPLSLPVTLGQPASISCSGEKLSDKYVHWYQQRPGQSPRMLIYENDRRPSGVPDRFSGSNSGNDATLKISRVEAEDVGVYFCQFWDSTNSAVFGGGTKVEIKDKTHTCPPCPAPELLGGPSVFLFPPKPKDTLMISRTPEVTCVVVDVSHEDPEVKFNWYVDGVEVHNAKTKPREEQYASTYRVVSVLTVLHQDWLNGKEYKCKVSNKALPAPIEKTISKAKGQPREPQVCTLPPSREEMTKNQVSLSCAVKGFYPSDIAVEWESNGQPENNYKTTPPVLDSDGSFFLVSKLTVDKSRWQQGNVFSCSVMHEALHNHYTQKSLSLSPGK

— US20230333112A1 (published 2023)
